Experimental data taken from patent US9999687B2, “Fluorescent imaging agents” (VisEn Medical, Inc., priority 2008, dated 2018).
Blank lines part the entries; values can stand above or below the substance they belong to. [ ]: non-standard residue; d: D form. Cha = N[C@@H](CC1CCCCC1)C(=O)O; F5 = not defined here; βAla = NCCC(=O)O

How the values were obtained:
[1] = target: T1, recombinant human Renin (rhRenin) (Homo sapiens, UniProt P00797); assay: Enzyme activation profile of R agents, renin; assay type: biochemical; conditions: probe 1 μM, enzyme 100 nM, 37 C, 24 hours; FIG. 11
T1 construct: purchased Proteos
T1 sequence (P00797 67-406): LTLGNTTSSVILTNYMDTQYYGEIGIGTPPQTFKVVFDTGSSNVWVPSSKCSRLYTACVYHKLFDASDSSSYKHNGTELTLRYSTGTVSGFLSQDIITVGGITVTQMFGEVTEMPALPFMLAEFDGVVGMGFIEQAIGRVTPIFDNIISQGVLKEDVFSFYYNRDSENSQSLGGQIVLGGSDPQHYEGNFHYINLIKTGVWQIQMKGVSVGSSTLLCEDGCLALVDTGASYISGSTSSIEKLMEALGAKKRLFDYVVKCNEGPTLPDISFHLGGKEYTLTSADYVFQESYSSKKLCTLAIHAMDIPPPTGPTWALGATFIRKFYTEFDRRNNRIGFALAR
Protocol: (§1) The reactions were performed with appropriate buffer in a 96-well plate with a final assay volume of 250 μL and probe and enzyme concentrations of 1 μM and 100 nM, respectively. The reactions were incubated at 37 C for Renin and room temperature for the other proteases. The buffer for human neutrophil Cathepsin G (BIOMOL) was 100 mM Tris (pH 7.5), 1.6 M NaCl. The buffer for Cathepsin D (BIOMOL) was 100 mM Formic Acid (pH 3.3). The buffer for recombinant human neutrophil elastase (Innovative Research) was 100 mM Tris (pH 7.5). The buffer for plasmin (CalBiochem) and trypsin (Sigma) was 1× phosphate buffered saline (PBS) (pH 7.4). The buffer for recombinant human Renin (rhRenin) (Proteos) and recombinant rat Renin (rrRenin) (Proteos) was 50 mM MOPS (pH 7.4), 100 mM NaCl, with freshly prepared 0.002% tween-20. The plate was incubated at the appropriate temperature and the activity was monitored at 24 hours with a Gemini (Molecular Devices) plate reader at excitation wavelength 663 nm, emission 690 nm, and cut off 665 nm. The released fluorescent unit was determined by subtracting the fluorescence of the probe alone from the total fluorescence.

[2] = test system: kidneys of mice on a low sodium diet; assay: Renal imaging, low sodium diet versus control diet; assay type: in vivo, C57BL6 mice; conditions: intravenous 0.2-4 nmol/mouse, imaging at 24 hrs, fluorescence molecular tomography; FIG. 12
Protocol: C57BL6 mice (Jackson Laboratories) were fed a sodium deficient diet (0.02% Na) and water was replaced with a solution of amiloride (0.1 mg/5 mL or 5 mg/kg/day) for 2 days. Control C57BL6 mice were fed regular chow diet and water. Imaging agents [F5]-Lys-His-Pro-Phe-His-Leu-Val-Ile-His-Lys(F5)-[OH] (SEQ ID NO:401) (R20) and ([F5]-Lys-His-Pro-Phe-His-Leu-Val-Ile-His-Lys(F5)-[NHmPEG20k] (SEQ ID NO:428) (R21) were injected intravenously at different concentrations (0.2, 0.7, 2 and 4 nmol/mouse) following 2 days on a low salt diet. Imaging was conducted at 24 hrs using a Fluorescence Molecular Tomography system (VisEn Medical, Woburn Mass.).

[3] = target: T2, recombinant human neutrophil elastase (Homo sapiens, UniProt P08246); assay: Enzyme activation profile of R agents, neutrophil elastase; assay type: biochemical; conditions: probe 1 μM, enzyme 100 nM, room temperature, 24 hours; FIG. 11
T2 construct: purchased Innovative Research
T2 sequence (P08246 30-267): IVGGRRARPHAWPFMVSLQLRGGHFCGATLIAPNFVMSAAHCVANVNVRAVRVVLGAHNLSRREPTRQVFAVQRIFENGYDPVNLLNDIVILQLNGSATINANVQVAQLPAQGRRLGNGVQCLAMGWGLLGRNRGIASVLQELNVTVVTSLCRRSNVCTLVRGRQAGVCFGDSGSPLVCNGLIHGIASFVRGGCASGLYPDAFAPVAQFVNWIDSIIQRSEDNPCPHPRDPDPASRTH
Protocol: as §1

[4] = target: T3, human neutrophil Cathepsin G (Homo sapiens, UniProt P08311); assay: Enzyme activation profile of R agents, Cathepsin G; assay type: biochemical; conditions: probe 1 μM, enzyme 100 nM, room temperature, 24 hours; FIG. 11
T3 construct: purchased BIOMOL
T3 sequence (P08311 21-244): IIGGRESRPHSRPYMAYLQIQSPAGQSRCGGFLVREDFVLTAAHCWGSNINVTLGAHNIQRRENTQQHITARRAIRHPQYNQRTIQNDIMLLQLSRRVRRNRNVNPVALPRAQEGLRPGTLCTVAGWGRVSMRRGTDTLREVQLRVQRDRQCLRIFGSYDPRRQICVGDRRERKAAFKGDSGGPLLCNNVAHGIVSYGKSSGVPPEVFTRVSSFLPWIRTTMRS
Protocol: as §1

trypsin = assay: Enzyme activation profile of R agents, trypsin; assay type: biochemical; conditions: probe 1 μM, enzyme 100 nM, room temperature, 24 hours; FIG. 11
Protocol: as §1

[5] = test system: activated humanized rabbit Cathepsin K; assay: Enzyme activation profile of Q92 and Q93, Cathepsin K; assay type: biochemical; conditions: probe 0.5 μM, enzyme 0.05 μM, room temperature, 0-24 hours; panel also Cathepsin B, L, MMP-2, MMP-9; FIG. 6
Protocol: The reactions were performed with appropriate buffer at room temperature in a 96-well plate with a final assay volume of 250 μL and probe and enzyme concentrations of 0.5 μM and 0.05 μM respectively. The buffer for activated humanized rabbit Cathepsin K (Merck) was 50 mM MES (pH 5.0), 2.5 mM EDTA, 2.5 mM DTT. The buffer for Cathepsin B was 25 mM MES (pH 5.0), 1 mM DTT. The recombinant human Cathepsin B (R&D Systems) was activated in buffer of 25 mM MES (pH 5.0) and 5 mM DTT for 15 minutes at room temperature. The recombinant human Cathepsin L (R&D Systems) was activated in buffer of 50 mM MES (pH 6.0), 5 mM DTT, for 15 minutes on ice. The buffer for MMP-2 (BIOMOL) and MMP-9 (BIOMOL) was 50 mM Tris (pH 7.5), 10 mM CaCl2, 150 mM NaCl, and 0.05% Brij-35 detergent. The plate was incubated at room temperature and the activity was monitored at 0, 1, 3, 5, and 24 hours with a Gemini (Molecular Devices) plate reader at excitation wavelength 663 nm, emission 690 nm, and cut off 665 nm. The released fluorescent unit was determined by subtracting the fluorescence of the probe alone from the total fluorescence.

[6] = test system: ovariectomized mice, tibia region; assay: Bone imaging, ovariectomy induced osteoporosis; assay type: in vivo, BALB/c female mice; conditions: intravenous, 4 and 24 hours post-injection, fluorescence molecular tomography; FIG. 7
Protocol: BALB/c female mice 7 weeks old (Charles River Laboratory, Wilmington, Mass.) were subjected to ovariectomy or sham surgery to induce osteoporosis. After one to two weeks after surgery, the mice were injected intravenously with imaging agent [F5]-His-Gly-Pro-Asn-Lys(F5)-[PEG20kDa] (SEQ ID NO:427) (Agent Q94). Imaging was conducted at various time points using a Fluorescence Molecular Tomography system (VisEn Medical, Bedford, Mass.).

Substance: [F5]-Lys-His-Pro-Phe-His-Cha-Val-Ile-His-Lys(F5)-[OH] (F5-KHPFH[Cha]VIHK(F5)-OH; reading uncertain; also: printed as [F5]-Lys-His-Pro-Phe-His-Cha-Val-Ile-His-Lys(F5)-[OH]) [Agent R24]
activation by recombinant human renin (released fluorescent unit) [1]: activated primarily by recombinant human rennin

Substance: [F5]-Lys-His-Pro-Phe-His-Leu-Val-Ile-His-Lys(F5)-[OH] (F5-KHPFHLVIHK(F5)-OH; reading uncertain; also: printed as [F5]-Lys-His-Pro-Phe-His-Leu-Val-Ile-His-Lys(F5)-[OH]) [Agent R20]
activation by recombinant human renin (released fluorescent unit) [1]: activated primarily by recombinant human rennin
kidney signal, low sodium diet versus control diet [2]: increased signal relative to the kidneys in the mice on the control diet

Substance: [F5]-His-Gly-Pro-Asn-Lys(F5)-[PEG20kDa] (F5-HGPNK(F5)-PEG20kDa; reading uncertain; also: printed as [F5]-His-Gly-Pro-Asn-Lys(F5)-[PEG20kDa]) [Agent Q94]
probe signal in tibia region, ovariectomized versus sham mice [6]: increased probe signal detected in the tibia region

Substance: [F5]-Lys(Ac)-His-Pro-Phe-His-Leu-Val-Ile-His-Lys(F5)-[OH] (F5-K(Ac)HPFHLVIHK(F5)-OH; reading uncertain; also: printed as [F5]-Lys(Ac)-His-Pro-Phe-His-Leu-Val-Ile-His-Lys(F5)-[OH]) [Agent R23]
activation by recombinant human renin (released fluorescent unit) [1]: activated primarily by recombinant human rennin

Now from value to substance, other results behind:

activation by recombinant human renin (released fluorescent unit) [1]: activated
activation by human neutrophil elastase (released fluorescent unit) [3]: activated
activation by human neutrophil cathepsin (released fluorescent unit) [4]: activated
activation by trypsin (released fluorescent unit) (trypsin): activated
Substance: [F5]-Lys-His-Pro-Phe-His-Leu-Val-Ile-His-Lys(F5)-[NHmPEG5k] (F5-KHPFHLVIHK(F5)-NHmPEG5k; reading uncertain; also: printed as [F5]-Lys-His-Pro-Phe-His-Leu-Val-Ile-His-Lys(F5)-[NHmPEG5k]) [Agent R27]

activation by Cathepsin K (released fluorescent unit) [5]: activated primarily by Cathepsin K
Substance: [F5]-His-Gly-Pro-Asn-Lys(F5)-His-Gly-Pro-Asn-βA-[PEG20kDa] (F5-HGPNK(F5)HGPN[βAla]-PEG20kDa; reading uncertain; also: printed as [F5]-His-Gly-Pro-Asn-Lys(F5)-His-Gly-Pro-Asn-βA-[PEG20kDa]) [Agent Q93]

activation by recombinant human renin (released fluorescent unit) [1]: activated
activation by human neutrophil elastase (released fluorescent unit) [3]: activated
activation by human neutrophil cathepsin (released fluorescent unit) [4]: activated
activation by trypsin (released fluorescent unit) (trypsin): activated
Substance: [F5]-Lys-His-Pro-Phe-His-Leu-Val-Ile-His-Lys(F5)-[NHmPEG20k] (F5-KHPFHLVIHK(F5)-NHmPEG20k; reading uncertain; also: printed as [F5]-Lys-His-Pro-Phe-His-Leu-Val-Ile-His-Lys(F5)-[NHmPEG20k]) [Agent R21]
kidney signal, low sodium diet versus control diet [2]: increased signal relative to the kidneys in the mice on the control diet

activation by Cathepsin K (released fluorescent unit) [5]: activated primarily by Cathepsin K
Substance: [F5]-His-Gly-Pro-Arg-Lys(F5)-[PEG20kDa] (F5-HGPRK(F5)-PEG20kDa; reading uncertain; also: printed as [F5]-His-Gly-Pro-Arg-Lys(F5)-[PEG20kDa]) [Agent Q92]
